Legend:
Cx43CT [1] = target: T1, Cx43CT (Rattus norvegicus, UniProt P08050); assay: Biased (XXXXRXPXXXX) phage display screening against Cx43CT; type: binding; conditions: for Total Frequency (%): all three runs, 402 inserts sequenced; for Frequency Run 2(%) / Frequency Run 1 (%): binding step at pH 6.5; for Frequency Run 2(%): 119 inserts sequenced; for Frequency Run 1 (%): 120 inserts sequenced; for Frequency Run 3 (%): binding step at pH 7.4, 163 inserts sequenced
T1 construct: GST (N, cleaved yes); made in house; host or cells: E. coli BL-21
T1 sequence (P08050 255-382): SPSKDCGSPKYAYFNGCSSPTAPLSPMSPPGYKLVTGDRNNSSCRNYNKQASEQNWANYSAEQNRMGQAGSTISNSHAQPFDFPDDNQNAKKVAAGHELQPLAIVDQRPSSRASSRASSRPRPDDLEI
Procedure: A “library” of bacteriophage, displaying ˜[…] of 2.7×10^9 random 12-mer peptides (Ph.D.-12™ Phage display peptide library kit; New England BioLabs Inc.) was utilized. Wells in 24-well plates were coated with 15 μg of recombinant CT and blocked with 5 mg/ml BSA. After removing the unbound viruses by washing with Tris buffered saline containing 0.5% tween-20 (TBS-T), low affinity binders were eluted with a solution of TBS-containing Cx43CT at a concentration of 100 μg/ml. High affinity binders were recovered by overlaying the well with a culture of E. coli, to allow the tightly bound phage to infect the bacteria. This culture was amplified and the virus was precipitated with PEG. The amplified product was used for the subsequent round of panning. All steps were conducted at pH 6.5 unless otherwise indicated.
After three rounds of selection and amplification, the phage recovered from the last round of binding were grown on a lawn of E. coli for plaque purification. Each plaque, representing a single clone, was picked and amplified. The phage were isolated and analyzed by DNA sequencing.
The Ph.D. Peptide Display Cloning System (New England BioLabs Inc.) was used to create a biased phage display library of sequence XXXXRXPXXXX, where X is any amino acid flanking an arginine and a proline with an additional random residue at the center. The randomized peptides were followed by a Gly-Gly-Gly-Ser (SEQ ID NO:2) spacer. The library was cloned into M13 phage. These phage were analyzed for titer and sequence prior to screening for Cx43CT binding as described above.
The RXP motif was not detected in phage that bound to streptavidin. The motif occurred in different positions within the 12-mer peptide, thus preventing proper alignments to determine the frequency of other amino acids at specific positions relative to the RXP. To overcome this limitation and to search for peptides with higher binding affinity (see Example 10), a biased phage display library was generated where the RXP motif was forced to the center of the sequence, flanked at each side by 4 randomized amino acids. Sixty clones containing an insert (out of an estimated 3-4×10^4 total clones in the library) were chosen at random for sequencing prior to exposure of the library to Cx43CT. All inserts coded for an 11-mer peptide with the RXP motif in the appropriate location. In three independent runs, the same library was presented to Cx43CT. The binding step was carried out at pH 6.5 in two of the runs (run 1 and 2) and at pH 7.4 in one additional run (run 3). The total number of phage plaques containing a full coding insert that were recovered after the binding step were 120, 119 and 163 for runs 1, 2 and 3, respectively. […] These inserts may be consequent to incomplete restriction enzyme digestion as well as possible residual activity of the Klenow polymerase used in second strand production. The combination of these two factors would result in blunt ends that subsequently ligated. […] Furthermore, five specific peptides were recovered from all three runs and represented a large fraction of the repeats observed within the same run (see Table 2).

Cx43CT [2] = target: T1, Cx43CT; assay: Surface Plasmon Resonance (SPR) binding of synthetic peptides to immobilised recombinant Cx43CT; conditions: for SPR binding to Cx43CT (in words): Cx43CT bound to carboxymethyl dextran matrix
Source text: Recombinant Cx43CT was produced as described in Duffy et al., “pH-Dependent Intramolecular Binding and Structure Involving Cx43 Cytoplasmic Domains,” J. Biol. Chem. 277(39):36706-36714 (2002), which is hereby incorporated by reference in its entirety. Briefly, cDNA derived from rat Cx43 was inserted into pGEX-6P-2 (Amersham) and expressed in E. coli (BL-21). The resultant GST-fusion protein was cleaved from the GST PreScission Protease® (Amersham Biosciences). The recombinant product after cleavage contained the sequence 255-382 of rCx43 preceded by four additional amino acids (GPLG). Protein concentration was measured using the Bio-Rad DC Protein Assay. Protein purity was assessed by SDS-PAGE.
Recombinant Cx43CT was covalently bound to a carboxylmethyl dextran matrix (Salamon et al., “Surface Plasmon Resonance Spectroscopy as a Tool for Investigating the Biochemical and Biophysical Properties of Membrane Protein Systems. II: Applications to Biological Systems,” Biochim. Biophys. Acta 1331(2):131-152 (1997), which is hereby incorporated by reference in its entirety). Specific peptides were presented and, when feasible, dissociation constants (KD) were calculated from the time course of binding and unbinding of the ligand, using a 1:1 (Langmuir) association and dissociation kinetic model (Biacore software package). In both phases (association and dissociation), the first 5-8 seconds of recording were not included in the fit, to avoid artifacts resulting from peptide distribution within the flow cells (Lang et al., “Surface Plasmon Resonance as a Method to Study the Kinetics and Amplitude of Protein-protein Binding,” in PRACTICAL METHODS IN CARDIOVASCULAR RESEARCH 936-947 (Stefan Dhein, Friedrich Wilhelm Mohr & Mario Delmar eds., 2005), which is hereby incorporated by reference in its entirety).
Phage display allows for the rapid screening of thousands of peptides, but the characteristics of binding cannot be properly defined. Furthermore, the peptides are part of a capsid protein, which may affect the ability of the peptide to properly interact with the target protein. Therefore, some of the peptides identified by the phage screening were selected to, using SPR, further characterize their ability to bind Cx43CT. Recombinant Cx43CT was covalently bound to a carboxymethyl dextran matrix and synthetic peptides presented for binding. A total of six 12-mer peptides from the non-biased screening (peptides labeled RXP1 to RXP6 in Table 1) and 5 peptides from the biased screening (labeled RXP-A to RXP-E in Table 3) were tested. […] Peptide RXP4 (SEQ ID NO:15) caused the largest deflection in SPR signal. RXP4 (250 μM) was added at time “zero.” Washout was initiated after two minutes of exposure. […] Higher concentrations of the peptide were tested but an asymptotic maximum response could not be detected. In addition, dissociation rates were too fast to reliably use them to calculate the kinetics of binding.
A different result emerged from the testing of the doublets. […] The transitions were well-fit by exponential functions and the rates of association and dissociation were used as described in Example 4 to estimate the kinetic parameters. A full range of concentrations was tested in three separate occasions and at two different pHs of the solvent (6.5 and 7.4). […] Adhes. 8(4-6):219-223 (2001), which is hereby incorporated by reference in its entirety), and that measured for the binding of Aquaporin-0 to Cx45.6 (Yin et al., “The Development-associated Cleavage of Lens Connexin 45.6 by Caspase-3-like Protease is Regulated by Casein Kinase II-mediated Phosphorylation,” J. Biol. Chem. 276(37):34567-34572 (2001), which is hereby incorporated by reference in its entirety).
The peptides were tested for binding to the carboxyl terminal domain of Cx43 using Surface Plasmon Resonance (“SPR”). […]

Cx43CT [3] = target: T1, Cx43CT; assay: NMR 15N-HSQC resonance shifts of 15N-Cx43CT in presence of peptide; type: binding; conditions: PBS pH 5.8, peptide to Cx43CT about 2.4 mM to 0.8 mM (3:1)
Procedure: All NMR data were acquired on a Varian INOVA 600-MHz NMR spectrometer using a cryoprobe (MacUra & Ernst, “Elucidation of Cross Relaxation in Liquids by Two-dimensional NMR Spectroscopy,” Mol. Phys. 41:95-117 (1980), which is hereby incorporated by reference in its entirety); the sample temperature was maintained at 7° C. Gradient-enhanced two-dimensional ^1H-^15N HSQC experiments (Kay et al., “Pure Absorption Gradient Enhanced Heteronuclear Single Quantum Correlation Spectroscopy with Improved Sensitivity,” J. Am. Chem. Soc. 114:10663-10665 (1992), which is hereby incorporated by reference in its entirety) were used to observe all backbone amide resonances in ^15N-labeled Cx43CT. Data were acquired with 1024 complex points in t2 and 128 complex points in t1. Sweep widths were 10,000 Hz in the proton dimension and 2,500 Hz in the nitrogen dimension. The concentration of RXP peptide to Cx43CT was approximately 2.4 mM to 0.8 mM, respectively (3:1 ratio). All NMR data were processed using NMRPipe (Delaglio et al., “NMRPipe: A Multidimensional Spectral Processing System Based on UNIX Pipes,” J. Biomol. NMR 6(3):277-293 (1995), which is hereby incorporated by reference in its entirety) and analyzed using NMRView (Sorgen, “How to Solve a Protein Structure by Nuclear Magnetic Resonance The Connexin43 Carboxyl Terminal Domain,” in PRACTICAL METHODS IN CARDIOVASCULAR RESEARCH 948-958 (Stefan Dhein, Friedrich Wilhelm Mohr & Mario Delmar eds., 2005), which is hereby incorporated by reference in its entirety).
Peptides RXP1, RXP4 and RXP-E were tested for their ability to modify the structure of Cx43CT. The peptides were diluted in PBS (pH 5.8) containing ^15N-Cx43CT, and ^15N-HSQC spectra were acquired. Results for RXP4 and RXP-E are shown in FIGS. 4A (RXP4) and 4B (RXP-E). The specific resonance peaks that correspond to each amino acid in the Cx43CT sequence have been assigned (Sorgen et al., “Sequence-specific Resonance Assignment of the Carboxyl Terminal Domain of Connexin43,” J. Biomol. NMR 23(3):245-246 (2002), which is hereby incorporated by reference in its entirety). […]

| Substance | Total Frequency (%) (Cx43CT [1]) | Frequency Run 2(%) (Cx43CT [1]) | Frequency Run 1 (%) (Cx43CT [1]) | Frequency Run 3 (%) (Cx43CT [1]) | Response (SPR amplitude) (Cx43CT [2]; peptide concentration 1.0 mM) | further results |
| --- | --- | --- | --- | --- | --- | --- |
| AcRNPRNP-NH2 (Ac-RNPRNP-NH2) [Peptide 2501] |  |  |  |  | 24.8 arbitrary units | Response (SPR amplitude) (Cx43CT [2]; peptide concentration 500 μM): 14.4 arbitrary units |
| G H L H L R V P T L K M (GHLHLRVPTLKM; RXP-containing peptide) [RXP1] |  |  |  |  |  | Shift of Cx43CT resonance peaks (15N-HSQC) (Cx43CT [3]): no resonance shifts were observed; SPR binding to Cx43CT (in words) (Cx43CT [2]): detectable, pH-dependent binding; SPR binding to Cx43CT (in words) (Cx43CT [2]; listed as RXP-1): very weak (almost undetectable) interaction |
| AcRRKPRRKP-NH2 (Ac-RRKPRRKP-NH2) [Peptide 2503] |  |  |  |  | 294.7 arbitrary units | Response (SPR amplitude) (Cx43CT [2]; peptide concentration 25 μM): 27.5 arbitrary units; Response (SPR amplitude) (Cx43CT [2]; peptide concentration 100 μM): 80.6 arbitrary units; Response (SPR amplitude) (Cx43CT [2]; peptide concentration 250 μM): 147.0 arbitrary units; Response (SPR amplitude) (Cx43CT [2]; peptide concentration 500 μM): 214.8 arbitrary units |
| R R P P Y R V P R K L F (RRPPYRVPPKLF) [RXP4] |  |  |  |  |  | Shift of Cx43CT resonance peaks (15N-HSQC) (Cx43CT [3]): strongly affected the resonance peaks of residues R376, D378, and D379; Shift of Cx43CT resonance peaks (15N-HSQC) (Cx43CT [3]; listed as RXP-4): caused a shift in the position of residues 376, 378 and 379, as well as residues 343-346; SPR binding to Cx43CT (in words) (Cx43CT [2]): too weak to allow for proper calculation of kinetic values; SPR binding to Cx43CT (in words) (Cx43CT [2]; listed as RXP-4): weak intermolecular binding |
| AcRRNP-NH2 (Ac-RRNP-NH2) [Peptide 2505] |  |  |  |  | 34.9 arbitrary units |  |
| AcRRKP-NH2 (Ac-RRKP-NH2) [Peptide 2504] |  |  |  |  | 46.5 arbitrary units |  |
| AcRNP-NH2 (Ac-Arg-Asn-Pro-NH2) [Peptide 2502, small RXP peptide] |  |  |  |  | 4.6 arbitrary units |  |
| GIAAREPNSHDGGGSAHARVPFYSHSRDLWRKPAKSL (RXP-containing peptide) | 15.2% | 11.8% | 12.5% | 19.6% |  |  |

The next lines start with results.

| Total Frequency (%) (Cx43CT [1]) | Frequency Run 2(%) (Cx43CT [1]) | Frequency Run 1 (%) (Cx43CT [1]) | Frequency Run 3 (%) (Cx43CT [1]) | Response (SPR amplitude) (Cx43CT [2]; peptide concentration 1.0 mM) | Substance | further results |
| --- | --- | --- | --- | --- | --- | --- |
| 40% | 64.7% | 20.8% | 36.2% |  | DVPGRDPGYIKGGGSAHARVPFYSHSLNRNRKPSLYQ (RXP-containing peptide) [RXP-A] |  |
| 6% | 0.8% | 16.7% | 1.8% |  | WEEPRRPFTMSGGGSAETHARVPFYSHSPMRHRLPGVHL (RXP-containing peptide) [RXP-D] |  |
| 8.2% | 2.5% | 6.7% | 13.5% |  | EIQPRSPLMFSGGGSAHARVPFYSHSAKEARWPRAHR (RXP-containing peptide) [RXP-B] |  |

From patent publication US20090075291A1, “PEPTIDE-BASED REGULATION OF GAP JUNCTIONS” (The Research Foundation of State University of New York, priority 2006, published 2009)
